Biological target: T1, recombinant human PDGF receptor α extracellular domain (PDGF sRα) (human, UniProt P16234 24-528, biotin (biotin-X-NHS) in the direct-binding ELISA on PDGF-coated wells; not said to be biotinylated in the blocking ELISA)
T1 construct: PDGF receptor α, human, extracellular domain; also called soluble PDGF receptor α; sRα-bio; source: bought: R&D Systems
Experiment: ELISA; serially diluted biotinylated PDGF sRα added to PDGF-coated wells; detected with streptavidin-HRP
Conditions: both partners purified

T1 sequence (P16234 24-528): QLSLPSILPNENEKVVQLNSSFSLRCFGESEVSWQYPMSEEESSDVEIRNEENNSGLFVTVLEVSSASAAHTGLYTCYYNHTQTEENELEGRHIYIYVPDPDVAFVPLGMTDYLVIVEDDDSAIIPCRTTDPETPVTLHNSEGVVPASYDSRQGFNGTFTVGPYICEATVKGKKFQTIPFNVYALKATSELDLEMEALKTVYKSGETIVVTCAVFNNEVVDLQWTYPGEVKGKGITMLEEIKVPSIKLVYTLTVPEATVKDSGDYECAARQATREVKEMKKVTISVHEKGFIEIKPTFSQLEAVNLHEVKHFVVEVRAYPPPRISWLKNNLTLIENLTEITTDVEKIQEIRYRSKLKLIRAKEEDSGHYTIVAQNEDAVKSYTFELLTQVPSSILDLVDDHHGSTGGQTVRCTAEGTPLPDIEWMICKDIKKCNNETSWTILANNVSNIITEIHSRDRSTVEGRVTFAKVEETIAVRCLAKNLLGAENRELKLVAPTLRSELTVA

B1: recombinant human PDGF-BB (ligand, UniProt P01127 82-190, looked up)
chain: SLGSLTIAEPAMIAECKTRTEVFEISRRLIDRTNANFLVWPPCVEVQRCSGCCNNRNVQCRPTQVQLRPVQVRKIEIVRKKPIFKKATVTLEDHLACKCETVAAARPVT
notes: PDGF-B chain, human; homodimer; source: bought: R&D Systems
Does B1 bind?
Result: binds

From publication PMC3084709, “TMEFF2 Is a PDGF-AA Binding Protein with Methylation-Associated Gene Silencing in Multiple Cancer Types Including Glioma” (PLoS ONE, 2011)
